Reference: patent US20220348620A1

Tests used:
Assay in all cases: anti-Flag pull-down from MFF1-transfected PC3 cells, LC-MS/MS; intensity over control, mean of two experiments
COPA (human) = COPA (human) (UniProt P53621)
COPB1 (human) = COPB1 (human) (UniProt P53618)
DDB1 (human) = DDB1 (human) (UniProt Q16531)
DDOST (human) = DDOST (human) (UniProt P39656)
HSPA8 (human) = HSPA8 (human) (UniProt P11142)
OPA1 (human) = OPA1 (human) (UniProt O60313)
RPN1 (human) = RPN1 (human) (UniProt P04843)
RPN2 (human) = RPN2 (human) (UniProt P04844)
RPN2 (human), sequence (P04844 23-631 limits assumed): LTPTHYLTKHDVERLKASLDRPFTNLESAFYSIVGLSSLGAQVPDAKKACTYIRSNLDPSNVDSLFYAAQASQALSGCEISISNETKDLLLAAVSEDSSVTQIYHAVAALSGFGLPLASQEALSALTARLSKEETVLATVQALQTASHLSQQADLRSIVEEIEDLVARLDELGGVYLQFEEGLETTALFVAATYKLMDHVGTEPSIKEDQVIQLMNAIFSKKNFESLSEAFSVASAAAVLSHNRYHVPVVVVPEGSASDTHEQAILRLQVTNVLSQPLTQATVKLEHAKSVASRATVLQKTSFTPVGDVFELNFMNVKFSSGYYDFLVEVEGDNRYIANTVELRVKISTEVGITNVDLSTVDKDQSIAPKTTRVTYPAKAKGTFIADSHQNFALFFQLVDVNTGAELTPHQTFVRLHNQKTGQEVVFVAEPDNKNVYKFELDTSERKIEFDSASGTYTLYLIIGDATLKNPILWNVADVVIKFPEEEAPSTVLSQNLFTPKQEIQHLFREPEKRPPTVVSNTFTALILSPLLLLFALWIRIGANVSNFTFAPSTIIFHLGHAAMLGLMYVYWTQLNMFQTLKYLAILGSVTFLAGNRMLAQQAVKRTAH

SLC25A13 (human) = SLC25A13 (human) (UniProt Q9UJS0)
SLC25A13 (human), sequence (Q9UJS0 2-675 limits assumed): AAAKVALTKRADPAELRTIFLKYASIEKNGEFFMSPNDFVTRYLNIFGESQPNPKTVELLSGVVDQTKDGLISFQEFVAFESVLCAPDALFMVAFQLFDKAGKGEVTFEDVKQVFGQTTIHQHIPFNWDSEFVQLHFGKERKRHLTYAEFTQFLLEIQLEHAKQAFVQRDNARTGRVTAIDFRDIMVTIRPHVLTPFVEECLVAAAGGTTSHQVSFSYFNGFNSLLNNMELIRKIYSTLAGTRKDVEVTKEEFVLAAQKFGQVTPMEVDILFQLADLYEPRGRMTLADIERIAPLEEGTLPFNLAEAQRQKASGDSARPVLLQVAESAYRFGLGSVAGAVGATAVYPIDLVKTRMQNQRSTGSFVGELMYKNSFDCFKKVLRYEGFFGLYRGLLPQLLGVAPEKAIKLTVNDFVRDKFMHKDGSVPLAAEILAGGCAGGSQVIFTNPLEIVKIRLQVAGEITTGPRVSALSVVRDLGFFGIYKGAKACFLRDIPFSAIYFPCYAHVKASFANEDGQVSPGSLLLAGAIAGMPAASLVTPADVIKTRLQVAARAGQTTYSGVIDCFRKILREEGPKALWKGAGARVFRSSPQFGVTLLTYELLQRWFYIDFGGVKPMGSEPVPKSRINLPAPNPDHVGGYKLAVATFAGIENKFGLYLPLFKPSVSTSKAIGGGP

TFRC (human) = TFRC (human) (UniProt P02786)

DDB1 (human), sequence (Q16531 2-1140 limits assumed): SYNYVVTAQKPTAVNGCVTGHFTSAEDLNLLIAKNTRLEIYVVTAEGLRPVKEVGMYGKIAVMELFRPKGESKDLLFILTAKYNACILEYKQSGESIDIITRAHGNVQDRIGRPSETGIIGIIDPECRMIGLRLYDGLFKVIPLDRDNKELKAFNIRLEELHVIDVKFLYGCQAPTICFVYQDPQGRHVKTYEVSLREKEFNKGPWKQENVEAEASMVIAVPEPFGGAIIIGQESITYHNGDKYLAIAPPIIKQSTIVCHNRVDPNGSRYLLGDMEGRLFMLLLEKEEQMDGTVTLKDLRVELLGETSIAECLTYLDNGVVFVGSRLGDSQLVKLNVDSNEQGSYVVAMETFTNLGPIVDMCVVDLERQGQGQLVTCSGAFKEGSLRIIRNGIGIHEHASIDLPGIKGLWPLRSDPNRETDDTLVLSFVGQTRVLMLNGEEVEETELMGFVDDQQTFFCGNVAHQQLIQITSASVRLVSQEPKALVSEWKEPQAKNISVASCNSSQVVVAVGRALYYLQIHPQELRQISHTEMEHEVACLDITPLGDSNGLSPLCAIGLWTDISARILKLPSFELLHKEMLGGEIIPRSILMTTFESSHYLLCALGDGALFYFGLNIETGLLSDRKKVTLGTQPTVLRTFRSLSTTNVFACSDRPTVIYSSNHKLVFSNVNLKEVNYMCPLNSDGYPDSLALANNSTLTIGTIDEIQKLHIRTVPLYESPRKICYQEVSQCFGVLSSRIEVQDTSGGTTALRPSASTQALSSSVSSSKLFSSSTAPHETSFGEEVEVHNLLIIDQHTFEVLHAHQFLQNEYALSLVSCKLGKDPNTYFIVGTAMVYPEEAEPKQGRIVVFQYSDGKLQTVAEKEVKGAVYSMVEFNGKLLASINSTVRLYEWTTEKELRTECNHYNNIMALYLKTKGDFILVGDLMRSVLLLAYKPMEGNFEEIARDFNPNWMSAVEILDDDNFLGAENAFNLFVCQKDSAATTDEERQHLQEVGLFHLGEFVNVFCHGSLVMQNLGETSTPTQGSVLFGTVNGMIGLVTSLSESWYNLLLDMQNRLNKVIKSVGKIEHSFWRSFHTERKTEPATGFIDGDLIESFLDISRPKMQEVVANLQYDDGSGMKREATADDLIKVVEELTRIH
COPB1 (human), sequence (P53618 2-953 limits assumed): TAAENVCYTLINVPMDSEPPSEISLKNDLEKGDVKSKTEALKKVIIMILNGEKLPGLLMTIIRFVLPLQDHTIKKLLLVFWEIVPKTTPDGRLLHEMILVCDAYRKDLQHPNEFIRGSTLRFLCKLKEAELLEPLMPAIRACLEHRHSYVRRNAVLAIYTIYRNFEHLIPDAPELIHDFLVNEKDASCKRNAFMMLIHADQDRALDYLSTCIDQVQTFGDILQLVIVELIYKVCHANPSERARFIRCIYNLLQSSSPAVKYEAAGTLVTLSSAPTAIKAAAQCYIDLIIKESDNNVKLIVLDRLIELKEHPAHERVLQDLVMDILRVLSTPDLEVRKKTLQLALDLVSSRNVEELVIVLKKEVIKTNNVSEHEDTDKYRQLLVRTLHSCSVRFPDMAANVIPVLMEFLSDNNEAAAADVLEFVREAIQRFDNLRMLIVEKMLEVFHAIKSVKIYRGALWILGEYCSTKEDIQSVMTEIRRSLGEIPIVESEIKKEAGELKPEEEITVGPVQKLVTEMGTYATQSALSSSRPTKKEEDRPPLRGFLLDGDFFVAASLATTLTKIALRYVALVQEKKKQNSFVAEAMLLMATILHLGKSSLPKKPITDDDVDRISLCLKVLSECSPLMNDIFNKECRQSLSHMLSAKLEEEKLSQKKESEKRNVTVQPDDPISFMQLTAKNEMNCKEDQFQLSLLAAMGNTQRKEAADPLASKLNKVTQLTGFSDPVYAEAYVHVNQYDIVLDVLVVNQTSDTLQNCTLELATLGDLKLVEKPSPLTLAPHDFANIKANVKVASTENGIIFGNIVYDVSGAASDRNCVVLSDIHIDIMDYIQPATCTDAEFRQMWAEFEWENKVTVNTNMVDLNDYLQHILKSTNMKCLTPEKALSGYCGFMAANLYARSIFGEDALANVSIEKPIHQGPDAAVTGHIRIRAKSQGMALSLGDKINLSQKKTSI
OPA1 (human), sequence (O60313 88-960 limits assumed): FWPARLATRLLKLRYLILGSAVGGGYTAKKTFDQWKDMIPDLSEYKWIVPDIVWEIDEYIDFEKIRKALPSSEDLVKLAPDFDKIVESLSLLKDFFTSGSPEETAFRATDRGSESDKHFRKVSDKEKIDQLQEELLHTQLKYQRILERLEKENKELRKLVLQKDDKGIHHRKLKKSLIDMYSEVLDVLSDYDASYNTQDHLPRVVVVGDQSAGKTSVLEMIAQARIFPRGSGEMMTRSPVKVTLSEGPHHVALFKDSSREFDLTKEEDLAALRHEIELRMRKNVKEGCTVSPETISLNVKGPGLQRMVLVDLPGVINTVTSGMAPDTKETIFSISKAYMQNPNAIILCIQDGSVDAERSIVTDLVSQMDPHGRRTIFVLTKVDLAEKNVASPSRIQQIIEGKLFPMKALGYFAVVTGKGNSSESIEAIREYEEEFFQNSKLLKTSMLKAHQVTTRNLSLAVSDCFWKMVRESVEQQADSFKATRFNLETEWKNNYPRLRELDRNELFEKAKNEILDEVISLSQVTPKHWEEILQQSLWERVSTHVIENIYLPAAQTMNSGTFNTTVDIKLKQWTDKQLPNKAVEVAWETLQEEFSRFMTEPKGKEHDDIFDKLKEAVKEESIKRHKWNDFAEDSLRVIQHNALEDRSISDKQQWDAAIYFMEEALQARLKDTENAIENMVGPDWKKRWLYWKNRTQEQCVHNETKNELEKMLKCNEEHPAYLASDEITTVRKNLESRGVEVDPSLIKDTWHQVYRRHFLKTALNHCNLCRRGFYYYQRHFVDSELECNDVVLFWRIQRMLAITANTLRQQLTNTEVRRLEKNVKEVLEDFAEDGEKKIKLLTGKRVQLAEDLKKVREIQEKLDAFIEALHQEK
DDOST (human), sequence (P39656 43-456 limits assumed): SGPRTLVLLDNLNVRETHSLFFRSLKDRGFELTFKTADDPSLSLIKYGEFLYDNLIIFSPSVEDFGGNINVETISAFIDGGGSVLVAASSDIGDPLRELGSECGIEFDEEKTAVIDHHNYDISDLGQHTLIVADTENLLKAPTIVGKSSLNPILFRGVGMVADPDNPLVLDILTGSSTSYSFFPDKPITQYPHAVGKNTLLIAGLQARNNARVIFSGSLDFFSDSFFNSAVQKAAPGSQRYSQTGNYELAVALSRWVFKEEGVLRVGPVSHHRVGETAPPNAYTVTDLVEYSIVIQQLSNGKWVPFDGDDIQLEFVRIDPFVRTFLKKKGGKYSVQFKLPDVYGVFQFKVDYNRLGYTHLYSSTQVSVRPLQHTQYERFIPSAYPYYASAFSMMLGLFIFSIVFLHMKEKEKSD

mean fold (COPA (human)): 19.3 fold
mean fold (COPB1 (human)): 18.5 fold
mean fold (DDB1 (human)): 32.3 fold
mean fold (DDOST (human)): 17.1 fold
mean fold (HSPA8 (human)): 21.4 fold
mean fold (OPA1 (human)): 25.2 fold
mean fold (RPN1 (human)): 10.8 fold
mean fold (RPN2 (human)): 12.1 fold
mean fold (SLC25A13 (human)): 15.1 fold
mean fold (TFRC (human)): 25.3 fold
Substance: Flag-MFF1 (from UniProt Q9GZY8 1-342)
